target: recombinant human MXRA8-Fc fusion protein (UniProt Q9BRK3); settings: 37 °C; n = 2; parent: est. 19; read off a plot

Substance | Kd
Ross River virus T48, CPER-recovered wild type, purified virus (E1/E2 envelope glycoproteins on the virion) E1:N141Q | 61 nM
Ross River virus T48, CPER-recovered wild type, purified virus (E1/E2 envelope glycoproteins on the virion) E1:P226A | 20 nM
Ross River virus T48, CPER-recovered wild type, purified virus (E1/E2 envelope glycoproteins on the virion) E1:S98A | 30 nM
Ross River virus T48, CPER-recovered wild type, purified virus (E1/E2 envelope glycoproteins on the virion) E2:A71D | 110 nM
Ross River virus T48, CPER-recovered wild type, purified virus (E1/E2 envelope glycoproteins on the virion) E2:H64A | 61 nM

From PMC8187723
